From article PMC13645619

Tests used:
[1] = target: AP-7-168-stabilized β2AR dimer (construct PN1) (UniProt P07550); assay: BLI
[2] = target: β2-adrenergic receptor (β2AR), construct PN1, monomeric (UniProt P07550); assay: BLI

heterotrimeric Gs (Gαsβ1γ2) (from UniProt P63092;P62873;P59768) (complex)
Kd [1]: 3110 nM | Kd [2]: 1710 nM
